Substitutions are numbered along the chain they refer to.
What was measured:
Experiment in all cases: phage ELISA, antigen-coated wells, anti-M13-HRP, A405
[1] = target: T1, FimA (Salmonella Type-1 fimbrial protein, A chain), recombinant (Salmonella (serovar ), UniProt P37921 23-185)
T1 sequence: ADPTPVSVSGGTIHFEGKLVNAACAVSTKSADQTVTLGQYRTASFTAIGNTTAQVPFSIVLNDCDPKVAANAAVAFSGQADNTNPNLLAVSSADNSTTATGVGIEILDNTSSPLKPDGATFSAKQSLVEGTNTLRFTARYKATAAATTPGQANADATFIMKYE

PrgI-SipD = target: T2, PrgI-SipD
T2 construct: also called PrgI-SipD fusion
T2 chain: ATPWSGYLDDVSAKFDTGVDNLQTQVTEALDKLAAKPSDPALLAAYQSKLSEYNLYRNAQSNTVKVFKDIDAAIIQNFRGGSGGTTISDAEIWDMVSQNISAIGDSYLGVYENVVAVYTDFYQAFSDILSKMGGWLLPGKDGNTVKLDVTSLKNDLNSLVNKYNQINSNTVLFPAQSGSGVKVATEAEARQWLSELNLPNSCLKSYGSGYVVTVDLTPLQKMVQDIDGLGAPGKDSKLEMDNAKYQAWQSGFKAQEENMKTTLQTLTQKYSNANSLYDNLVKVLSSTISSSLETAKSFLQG

[2] = target: T3, PrgI (Salmonella Type III secretion needle protein), recombinant (Salmonella typhimurium (strain LT2) as …, UniProt P41784 1-80)
T3 sequence: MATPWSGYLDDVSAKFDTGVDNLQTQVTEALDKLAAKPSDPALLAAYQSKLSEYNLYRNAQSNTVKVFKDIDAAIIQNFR

B1: NBX0200 (VHH)
VHH: QVQLQESGGGLVQAGGSLRLSCAASGRTSSSAYTAWFRQAPGNEREFVASISWSGTTTYYADPVKGRFTISRDNAKNTVYLQMNSLKPDDTAVYYCAADRRSTIGSPRQQYAYWGQGTQVTVSS
notes: also called Clone 97
binding over background (PBS-only wells) [1]: ≥ 4 fold

B2: NBX0219 (VHH)
VHH: QVQLQESGGGLVQPGGSLSLSCTASGSAFSGGDAMGWYRRAPGKQREFVAGISSGGIANYMDSVKGRFTISRDNAKKAVYLQMTSLKPEDTALYYCNSITAVLRGNSGWGQGTQVTVSS
notes: also called Clone 116
binding over background (PBS-only wells) (PrgI-SipD): ≥ 4 fold

B3: NBX0209 (VHH)
VHH: QVQLQESGGGLVQAGGSLRLSCAASGFTFSSSIMAWYRQAPGKQREAIASIPSFGSAVYADSVKDRFTISRDNNKNMVYLQMNSLKPEDTAVYYCNTRLYWGQGTQVTVSS
notes: also called Clone 106
binding over background (PBS-only wells) [2]: ≥ 4 fold

B4: NBX0215 (VHH)
VHH: B3 VHH with S32A, N83D, S111T
notes: also called Clone 112
binding over background (PBS-only wells) [2]: ≥ 4 fold

B5: NBX0211 (VHH)
VHH: B3 VHH with S31T, S32N, M34L, P52T, S53P, D61N, Y94S, R98Q, S111T
notes: also called Clone 108
binding over background (PBS-only wells) [2]: ≥ 4 fold

B6: NBX0218 (VHH)
VHH: QVQLQESGGGLVQAGGSLSLSCTASGSAFSGDAMGWYRRAPGKQREFVAGISSGAITNYMDSVKGRFTISRDNAKNTVYLQMTKLKPEDTAVYYCNRIQAVLRGNSGWGQGTQVTVSS
notes: also called Clone 115
binding over background (PBS-only wells) (PrgI-SipD): ≥ 4 fold

B7: NBX0220 (VHH)
VHH: QVQLQESGGGLVQAGGSLTLSCTASGSAFSGDAMGWYRRAPGKEREFVAGISSGGIPNYMGSVQGRFTISRDNAKNTVYLQMRRLKPEDTAVYYCNSISAVLRGNGVWGQGTQVTVSS
notes: also called Clone 117
binding over background (PBS-only wells) (PrgI-SipD): ≥ 4 fold

B8: NBX0235 (VHH)
VHH: B6 VHH with T23R, A24V, A55G, T57E, Q81R, T83S, K84S, R97L, Q99K
notes: also called Clone 132
binding over background (PBS-only wells) (PrgI-SipD): ≥ 4 fold

B9: NBX0233 (VHH)
VHH: B6 VHH with E46D, A55H, R97S, Q99T
notes: also called Clone 130
binding over background (PBS-only wells) (PrgI-SipD): ≥ 4 fold

B10: NBX0231 (VHH)
VHH: B6 VHH with S19T, A24T, K43Q, Q44E, A55G, D61N, S62F, K84S, R97S, Q99K
notes: also called Clone 128
binding over background (PBS-only wells) (PrgI-SipD): ≥ 4 fold

B11: NBX0208 (VHH)
VHH: QVQLQESGGGMVQAGGSLRLACTASGDISTIDVMGWNRQAPGKHRELVAIIARGGTIKYADSVKGRFTISRDNTKNTVTVYLQMNNVNAEDTAVYYCAVDTGSPRLTWGQGTQVTVSS
notes: also called Clone 105
binding over background (PBS-only wells) [2]: ≥ 4 fold

B12: NBX0207 (VHH)
VHH: QVQLQESGGGLVQAGKSLRLSCAASTAILSIDSMGWNRQAVGNQRELVAVIARGGSTKYADSVKGRFTITRDISKNTIYLQMNSLKPEDTGVYYCAADPGGASPLSWGQGTQVTVSL
notes: also called Clone 104
binding over background (PBS-only wells) [2]: ≥ 4 fold

B13: NBX0104 (VHH)
VHH: QVQLVESGGGLVQPGGSLRLSCAASGVAFNSRIMGWYRQAPGKQRELVALITSGGSTNYADSVKGRFTISRNNAKKTVYLQMNSLKPEDTAVYYCNIRNYWGQGTQVTVSS
notes: also called Clone 93
binding over background (PBS-only wells) [2]: ≥ 4 fold

B14: NBX0230 (VHH)
VHH: QVQLQESGGGSVQAGGSLRLSCAASARTLSNYAMGWFRQAPGKEREFVATISRSGGSIHYADSVKGRFTISRDNAKNTVNLQMNSLKVEDTAVYYCGRARGTGYAYTALNQYDYDYWGQGTQVTVSS
notes: also called Clone 127
binding over background (PBS-only wells) (PrgI-SipD): ≥ 4 fold

B15: NBX0234 (VHH)
VHH: B14 VHH with S11L, A26G, L29F, N31T, G56D, S57N, H59Y, N80S, Y106H
notes: also called Clone 131
binding over background (PBS-only wells) (PrgI-SipD): ≥ 4 fold

B16: NBX0214 (VHH)
VHH: QVQLQESGGGLVQAGGSLRLSCAASGSISSITAMGWNRQAPGNQQRDLVAVIARGGMTKYADSVQGRFTISRDIAKNTVYLQMNSLKPEDTGVYYCALDNGDPRLHWGQGIQVTVSS
notes: also called Clone 111
binding over background (PBS-only wells) [2]: ≥ 4 fold

B17: NBX0217 (VHH)
VHH: B16 VHH with K76N, D99Y
notes: also called Clone 114
binding over background (PBS-only wells) [2]: ≥ 4 fold

B18: NBX0213 (VHH)
VHH: QVQLQESGGGSVQAGGSLRLSCAASGSISSITAMGWNRQAPGNQRELVAVIARGGMIKYDDSVKGRFTISRDIAKNTVFLQMDSLKPEDTGVYYCAVDNGDPRLHWGQGIQVTVSS
notes: also called Clone 110
binding over background (PBS-only wells) [2]: ≥ 4 fold

B19: NBX0229 (VHH)
VHH: QVQLQESGGGLVQAGGSLRLSCAASGSGILFRISAMGWYRQAPGKERDLVAGISSGGSTNYADSVKGRFTISRDNAKNTVYLQMNSLKPEDTAVYYCNIVGRTDSWGQGTQVTVSS
notes: also called Clone 126
binding over background (PBS-only wells) (PrgI-SipD): ≥ 4 fold

B20: NBX0212 (VHH)
VHH: QVQLQESGGGLVQAGGSLRLSCAASTSILSINAMGWNREAPGNRREMVAIIAPGGTTNYADSVKGRFTITRDISKNTIYLQMNNLKPEDTGVYYCAADPGGQSPLSWGQGTQVTVSL
notes: also called Clone 109
binding over background (PBS-only wells) [2]: ≥ 4 fold

B21: NBX0108 (VHH)
VHH: QVKLEESGGGLVRAGGSLTLSCGASRGTFRTYSMGWFRQAPGKEREFVAAITWNGKYTYYGDSVQGRFTISKDNAKNTVSLQMNRLNPEDTAVYYCAANPIPTAQPPGIMAARSYVHWGQGTQVTVSS
notes: also called Clone 95
binding over background (PBS-only wells) [2]: ≥ 4 fold

B22: NBX0210 (VHH)
VHH: QVQLQESGGGLVQAGGSLRLACTASGDISSISVMGWNRQAPGKQQRELVAAIASGGSVKYADSVKGRFTISRDNTKNTVYLQMNSVNAEDTAVYYCAVDTGSPRLTWGQGTQVTVSS
notes: also called Clone 107
binding over background (PBS-only wells) [2]: ≥ 4 fold

B23: NBX0224 (VHH)
VHH: QVQLQQSGGGLVQAGGSLRLSCAASGLTFSSYAMGWFRQAPGKEREFIVAIGWSGGSTYYADSVKGRFTISRDNAKNTVYLHMNSLKPEDTAVYYCAARRTTAWGKGTDYWGQGTQVTVSS
notes: also called Clone 121
binding over background (PBS-only wells) (PrgI-SipD): ≥ 4 fold

B24: NBX0221 (VHH)
VHH: QVQLQESGGGLVQAGGSLRLSCAASGLTFNNYAMGWFRQAPGKEREFVATISRDGTNTRYADSVKGRFTISRDNAKNTVDLQMNSLKPEDTAVYYCGVGRGTGYAYTAINEYDYSKWGQGTQVTVSS
notes: also called Clone 118
binding over background (PBS-only wells) (PrgI-SipD): ≥ 4 fold

B25: NBX0227 (VHH)
VHH: B24 VHH with S21A, N57S, D80N, S85R, T102S, T107S, K116S
notes: also called Clone 124
binding over background (PBS-only wells) (PrgI-SipD): ≥ 4 fold

B26: NBX0236 (VHH)
VHH: B24 VHH with D80N, N110R, Y112H, K116S
notes: also called Clone 133
binding over background (PBS-only wells) (PrgI-SipD): ≥ 4 fold

B27: NBX0232 (VHH)
VHH: B24 VHH with N30H, R59H, T102S
notes: also called Clone 129
binding over background (PBS-only wells) (PrgI-SipD): ≥ 4 fold

B28: NBX0223 (VHH)
VHH: QVQLQESGGGLVQAGGSLRLSCVASGIDSSFYVMAWYRQAPGKQRELVASISSADSPRYEDFVKGRFTISRDNGKNTVYLQMNSLKPEDTAVYYCYGLYRQVHWGQGTQVTVSS
notes: also called Clone 120
binding over background (PBS-only wells) (PrgI-SipD): ≥ 4 fold

B29: NBX0226 (VHH)
VHH: B28 VHH with V23A, D28T, F31L, S50H, S52N, A54G, E60A, K64Q
notes: also called Clone 123
binding over background (PBS-only wells) (PrgI-SipD): ≥ 4 fold

B30: NBX0222 (VHH)
VHH: QVQLQESGGGLVQAGGSLRLSCAASGIDSSFYVMAWYRQAPGKQRELVASLGTPDSATYADFVKGRFIISRDNAKSTVYLQMNSLKPEDTAVYYCYGLYRQVYWGQGTQVTVSS
notes: also called Clone 119
binding over background (PBS-only wells) (PrgI-SipD): ≥ 4 fold

B31: NBX0216 (VHH)
VHH: QVQLQESGGGLVQAGGSLRLSCAASTSILSIDAMGWNRQAPGNQRRDLVAVIARGGSTQYADSVKGRFTITRDISKNTIYLQMNSLKPEYTGVYYCAADPGGASGLSWGQGTQVTVSL
notes: also called Clone 113
binding over background (PBS-only wells) [2]: ≥ 4 fold

B32: NBX0228 (VHH)
VHH: QVQLQESGGGLVQAGGSLRLSCAASGIDSSFYVMAWYRQAPGQQRELVASISMTSADSPRYADFVKGRFTISRDNAKSTVYLQMNSLKPEDTAVYYCYGLYRQVHWGQGTQVTVSS
notes: also called Clone 125
binding over background (PBS-only wells) (PrgI-SipD): ≥ 4 fold

B33: NBX0100 (VHH)
VHH: QVKLEESGGGLVQAGGSLRLSCAVSGSIFSTNLMGWYRQAPGKQRGFVAHITSGGNTDYLDSVKGRFTISRDNAKNTVYLQMNSLKPEDTAVYYCAAQTLGSSYYDAWGQGTQVTVSS
notes: also called Clone 92
binding over background (PBS-only wells) [1]: ≥ 4 fold

B34: NBX0105 (VHH)
VHH: QVQLVESGGGLVQAGGSLRLSCAASGRTFNTYYMGWFRQAPGKEREFVSAIRWSDGGTWYADSMKGRFTISRDNAKNTGYLQMNSLKPEDTAIYYCNANVYDGNRWRTYWGQGTQVTVSS
notes: also called Clone 94
binding over background (PBS-only wells) [2]: ≥ 4 fold

Reference: patent publication US20190202896A1 (NOVOBIND LIVESTOCK THERAPEUTICS, published 2019)
